Patent US20220275090A1, “Combination Therapies with Anti-CD38 Antibodies and PARP or Adenosine Receptor Inhibitors” (Janssen Biotech, Inc., priority 2021, published 2022)

Target: T1, mouse CD38 (Mus musculus, UniProt P56528)
T1 sequence (P56528 1-304): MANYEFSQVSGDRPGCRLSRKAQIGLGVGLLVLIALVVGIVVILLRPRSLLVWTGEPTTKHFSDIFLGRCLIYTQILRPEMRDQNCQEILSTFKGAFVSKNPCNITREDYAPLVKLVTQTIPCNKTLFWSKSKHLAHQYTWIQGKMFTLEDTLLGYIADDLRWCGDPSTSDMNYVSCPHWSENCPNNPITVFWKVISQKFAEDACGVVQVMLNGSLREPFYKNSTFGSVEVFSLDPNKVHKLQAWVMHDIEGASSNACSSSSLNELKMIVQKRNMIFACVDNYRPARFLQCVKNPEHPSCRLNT
Assay: Binding to mouse CD38 (statement)

Daratumumab: anti-CD38 antibody of IgG1/κ subtype; heavy chain SEQ ID NO: 12, light chain SEQ ID NO: 13
binding to mouse CD38: does not bind
